Where two headings read alike, the source gives them in different places.
Columns and labels:
[1] = biological target: IKKβ 680-756 (Homo sapiens) (UniProt O14920); assay: ITC; settings: cited from earlier work
[2] = biological target: IKKβ 680-756 (Homo sapiens) (UniProt O14920); assay: SPR; settings: cited from earlier work
[3] = biological target: IKKβ 701-745 (Homo sapiens) (UniProt O14920); assay: SPR; settings: cited from earlier work
[4] = biological target: the molecule itself; assay: cross-linking
[5] = biological target: the molecule itself; assay: cross-linking; remark: listed apart in the source
[6] = biological target: the molecule itself; assay: fluorescence polarisation

IKKβ 680-756 (Homo sapiens), sequence (O14920 680-756): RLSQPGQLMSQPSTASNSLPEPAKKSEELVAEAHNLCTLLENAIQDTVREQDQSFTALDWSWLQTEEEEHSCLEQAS
NEMO 38-196, sequence (Q9Y6K9 38-196): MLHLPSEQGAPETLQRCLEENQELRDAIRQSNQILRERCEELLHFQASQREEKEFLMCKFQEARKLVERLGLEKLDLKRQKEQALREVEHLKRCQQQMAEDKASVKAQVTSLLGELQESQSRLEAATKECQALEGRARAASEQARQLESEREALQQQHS
IKKβ 701-745 (Homo sapiens), sequence (O14920 701-745): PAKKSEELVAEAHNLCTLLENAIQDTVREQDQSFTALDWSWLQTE
NEMO 2-200, sequence (Q9Y6K9 2-200): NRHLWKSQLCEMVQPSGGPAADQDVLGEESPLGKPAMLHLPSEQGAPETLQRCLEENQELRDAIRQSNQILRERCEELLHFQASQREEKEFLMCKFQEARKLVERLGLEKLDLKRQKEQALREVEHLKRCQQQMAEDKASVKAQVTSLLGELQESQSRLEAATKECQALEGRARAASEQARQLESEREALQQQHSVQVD

Molecule | stoichiometry N [4] | further results
NEMO 38-196 (from UniProt Q9Y6K9) | – | Kd [1]: 1000 nM; Kd [2]: 3.4 nM
NEMO 2-200 (from UniProt Q9Y6K9) | – | Kd [3]: 76 nM
5xAla NEMO, recombinant full-length, C-terminal 6xHis (natural protein, human, UniProt Q9Y6K9 1-419, looked up) MNRHLWKSQLAEMVQPSGGPAADQDVLGEESPLGKPAMLHLPSEQGAPETLQRCLEENQELRDAIRQSNQILRERAEELLHFQASQREEKEFLMAKFQEARKLVERLGLEKLDLKRQKEQALREVEHLKRAQQQMAEDKASVKAQVTSLLGELQESQSRLEAATKEAQALEGRARAASEQARQLESEREALQQQHSVQVDQLRMQGQSVEAALRMERQAASEEKRKLAQLQVAYHQLFQEYDNHIKSSVVGSERKRGMQLEDLKQQLQQAEEALVAKQEVIDKLKEEAEQHKIVMETVPVLKAQADIYKADFQAERQAREKLAEKKELLQEQLEQLQREYSKLKASCQESARIEDMRKRHVEVSQAPLPPAPAYLSSPLALPSQRRSPPEEPPDFCCPKCQYQAPDMDTLQIHVMECIE | 2 | –
6xAla NEMO containing Cys347 (Cys347 added back into the 7xAla construct) (natural protein, human, UniProt Q9Y6K9 1-419, looked up) MNRHLWKSQLAEMVQPSGGPAADQDVLGEESPLGKPAMLHLPSEQGAPETLQRALEENQELRDAIRQSNQILRERAEELLHFQASQREEKEFLMAKFQEARKLVERLGLEKLDLKRQKEQALREVEHLKRAQQQMAEDKASVKAQVTSLLGELQESQSRLEAATKEAQALEGRARAASEQARQLESEREALQQQHSVQVDQLRMQGQSVEAALRMERQAASEEKRKLAQLQVAYHQLFQEYDNHIKSSVVGSERKRGMQLEDLKQQLQQAEEALVAKQEVIDKLKEEAEQHKIVMETVPVLKAQADIYKADFQAERQAREKLAEKKELLQEQLEQLQREYSKLKASCQESARIEDMRKRHVEVSQAPLPPAPAYLSSPLALPSQRRSPPEEPPDFCCPKCQYQAPDMDTLQIHVMECIE | 2 | –
6xAla NEMO containing Cys54 (Cys54 added back into the 7xAla construct) (natural protein, human, UniProt Q9Y6K9 1-419, looked up) MNRHLWKSQLAEMVQPSGGPAADQDVLGEESPLGKPAMLHLPSEQGAPETLQRCLEENQELRDAIRQSNQILRERAEELLHFQASQREEKEFLMAKFQEARKLVERLGLEKLDLKRQKEQALREVEHLKRAQQQMAEDKASVKAQVTSLLGELQESQSRLEAATKEAQALEGRARAASEQARQLESEREALQQQHSVQVDQLRMQGQSVEAALRMERQAASEEKRKLAQLQVAYHQLFQEYDNHIKSSVVGSERKRGMQLEDLKQQLQQAEEALVAKQEVIDKLKEEAEQHKIVMETVPVLKAQADIYKADFQAERQAREKLAEKKELLQEQLEQLQREYSKLKASAQESARIEDMRKRHVEVSQAPLPPAPAYLSSPLALPSQRRSPPEEPPDFCCPKCQYQAPDMDTLQIHVMECIE | 2 | –
6xAla NEMO containing Cys11 (Cys11 added back into the 7xAla construct) (natural protein, human, UniProt Q9Y6K9 1-419, looked up) MNRHLWKSQLCEMVQPSGGPAADQDVLGEESPLGKPAMLHLPSEQGAPETLQRALEENQELRDAIRQSNQILRERAEELLHFQASQREEKEFLMAKFQEARKLVERLGLEKLDLKRQKEQALREVEHLKRAQQQMAEDKASVKAQVTSLLGELQESQSRLEAATKEAQALEGRARAASEQARQLESEREALQQQHSVQVDQLRMQGQSVEAALRMERQAASEEKRKLAQLQVAYHQLFQEYDNHIKSSVVGSERKRGMQLEDLKQQLQQAEEALVAKQEVIDKLKEEAEQHKIVMETVPVLKAQADIYKADFQAERQAREKLAEKKELLQEQLEQLQREYSKLKASAQESARIEDMRKRHVEVSQAPLPPAPAYLSSPLALPSQRRSPPEEPPDFCCPKCQYQAPDMDTLQIHVMECIE | 2 | –
6xAla NEMO containing Cys76 (Cys76 added back into the 7xAla construct) (natural protein, human, UniProt Q9Y6K9 1-419, looked up) MNRHLWKSQLAEMVQPSGGPAADQDVLGEESPLGKPAMLHLPSEQGAPETLQRALEENQELRDAIRQSNQILRERCEELLHFQASQREEKEFLMAKFQEARKLVERLGLEKLDLKRQKEQALREVEHLKRAQQQMAEDKASVKAQVTSLLGELQESQSRLEAATKEAQALEGRARAASEQARQLESEREALQQQHSVQVDQLRMQGQSVEAALRMERQAASEEKRKLAQLQVAYHQLFQEYDNHIKSSVVGSERKRGMQLEDLKQQLQQAEEALVAKQEVIDKLKEEAEQHKIVMETVPVLKAQADIYKADFQAERQAREKLAEKKELLQEQLEQLQREYSKLKASAQESARIEDMRKRHVEVSQAPLPPAPAYLSSPLALPSQRRSPPEEPPDFCCPKCQYQAPDMDTLQIHVMECIE | 2 | –
5xAla NEMO, full-length, expressed in NEMO-deficient mouse fibroblasts (natural protein, human, UniProt Q9Y6K9 1-419, looked up) MNRHLWKSQLAEMVQPSGGPAADQDVLGEESPLGKPAMLHLPSEQGAPETLQRCLEENQELRDAIRQSNQILRERAEELLHFQASQREEKEFLMAKFQEARKLVERLGLEKLDLKRQKEQALREVEHLKRAQQQMAEDKASVKAQVTSLLGELQESQSRLEAATKEAQALEGRARAASEQARQLESEREALQQQHSVQVDQLRMQGQSVEAALRMERQAASEEKRKLAQLQVAYHQLFQEYDNHIKSSVVGSERKRGMQLEDLKQQLQQAEEALVAKQEVIDKLKEEAEQHKIVMETVPVLKAQADIYKADFQAERQAREKLAEKKELLQEQLEQLQREYSKLKASCQESARIEDMRKRHVEVSQAPLPPAPAYLSSPLALPSQRRSPPEEPPDFCCPKCQYQAPDMDTLQIHVMECIE | – | stoichiometry N [5]: 2
7xAla NEMO, recombinant full-length, C-terminal 6xHis (natural protein, human, UniProt Q9Y6K9 1-419, looked up) MNRHLWKSQLAEMVQPSGGPAADQDVLGEESPLGKPAMLHLPSEQGAPETLQRALEENQELRDAIRQSNQILRERAEELLHFQASQREEKEFLMAKFQEARKLVERLGLEKLDLKRQKEQALREVEHLKRAQQQMAEDKASVKAQVTSLLGELQESQSRLEAATKEAQALEGRARAASEQARQLESEREALQQQHSVQVDQLRMQGQSVEAALRMERQAASEEKRKLAQLQVAYHQLFQEYDNHIKSSVVGSERKRGMQLEDLKQQLQQAEEALVAKQEVIDKLKEEAEQHKIVMETVPVLKAQADIYKADFQAERQAREKLAEKKELLQEQLEQLQREYSKLKASAQESARIEDMRKRHVEVSQAPLPPAPAYLSSPLALPSQRRSPPEEPPDFCCPKCQYQAPDMDTLQIHVMECIE | 2 | Kd [6]: < 5 nM
